For orientation: Kd means a measure of binding affinity in units of concentration. A higher Kd goes with a looser complex. Broadly, the EC50 is the concentration at which the effect is half-maximal. A lower EC50 goes with a more potent agent.

Where no end group is shown, it is not given here. [ ]: non-standard residue; d: D form. pT = C[C@@H](OP(=O)(O)O)[C@H](N)C(=O)O; pS = N[C@@H](COP(=O)(O)O)C(=O)O

This note sets out measurements from US20250243263A1 (VOYAGER THERAPEUTICS, published 2025).

Assay [1] concerns the target T1, Tau191-214 phospho-peptide (pS199) (human, phosphoserine at S199 of tau (peptide position 9); SCBio-4PEG label).
T1 construct: also called pS199 peptide
In words: one point ELISA. The text has this: (§1) One-point ELISA was used to determine differential binding based on the individual phosphorylation patterns of each peptide. OD values (450 nm) were collected (as shown in Table 13), where a stronger positive signal is shown as a higher OD value, which is indicative of increased binding.
In general terms: In an ELISA, binding on a coated surface is turned into a signal by an enzyme label.

Assay [2] concerns the target T2, pS199-old (SCBio-4PEG-Peptide, Tau191-214) (human, phosphoserine at S199 of tau by the row label; SCBio-4PEG label).
T2 construct: The suffix -old is not explained
In words: one point ELISA.
Text: as §1

The target in assay [3] is T3, iPHF (UniProt P10636-8 2-441, limits assumed).
T3 construct: also called iPHF tau
T3 sequence (P10636 other isoform, or with tags, fused parts or gaps limits assumed): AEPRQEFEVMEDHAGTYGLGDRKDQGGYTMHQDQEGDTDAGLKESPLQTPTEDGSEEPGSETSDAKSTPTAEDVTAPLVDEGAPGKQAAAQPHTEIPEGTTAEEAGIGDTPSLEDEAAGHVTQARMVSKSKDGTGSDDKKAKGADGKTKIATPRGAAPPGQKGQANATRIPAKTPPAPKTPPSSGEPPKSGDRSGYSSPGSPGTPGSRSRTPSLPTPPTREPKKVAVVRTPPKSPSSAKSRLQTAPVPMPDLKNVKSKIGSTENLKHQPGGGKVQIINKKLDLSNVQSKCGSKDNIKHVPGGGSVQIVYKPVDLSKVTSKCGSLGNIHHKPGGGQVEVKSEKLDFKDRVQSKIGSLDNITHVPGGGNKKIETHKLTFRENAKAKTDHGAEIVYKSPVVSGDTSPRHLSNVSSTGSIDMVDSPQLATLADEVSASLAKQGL
The assay can be described thus: SPR (Biacore 8K).

The target of assay [4] is T4, enriched paired helical filament tau protein (ePHF; sarkosyl insoluble tau) (human, UniProt P10636 2-758). In words: cell-based or functional assay.
T4 sequence (P10636 other isoform, or with tags, fused parts or gaps limits assumed): as above
Assay [5] concerns the target T4, enriched paired helical filament tau …. In words: direct ELISA, ePHF coated. On the procedure:
(§2) A set of recombinant human IgG1 antibodies were prepared with clone-specific variable domain pairs selected from those presented in Table 1 and human IgG1 constant domains. These candidate antibodies were analyzed for binding to ePHF and specificity for ePHF over wild type tau by direct ELISA.
(§3) For direct ePHF and wildtype tau ELISA, plates were first coated with ePHF or wild type tau. Antigen solutions were prepared in PBS and 50 μL were pipetted into each well. Plates were covered and incubated for one hour at 37° C. or overnight at 4° C. Plates were then washed and blocked by addition of 150 μl of blocking buffer to each well and incubated one hour at room temperature. Plates were then washed before addition of serially diluted candidate antibody samples prepared in blocking buffer. Detection of candidate antibody binding was carried out by washing plates and adding a solution of enzyme-labeled secondary antibody in blocking buffer to each well. Secondary antibody binding was detected by addition of substrate and spectrophotometric analysis of resulting reaction product.

Assay [6] concerns the target T5, AT8 peptide (amino acids 195-215 of tau) (human, phospho-peptide, phosphorylated sites not stated in the example; immobilized on streptavidin tips).
T5 peptide: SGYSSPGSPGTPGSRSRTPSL
In words: BLI (Octet), phospho-peptide on streptavidin tips. Here is the method:
Briefly, phospho-peptides were immobilized on streptavidin biosensor tips and the binding ability of each antibody was assessed using an eight-point concentration gradient.

Assay [7] has as its target T3, iPHF. The assay can be described thus: BLI (Octet), antibody on biosensor tip, iPHF in solution. Here is the method: Anti-human tau antibodies were assessed for affinity for iPHF by Octet (ForteBio, Menlo Park, CA) analysis. A set of recombinant human IgG1 antibodies were prepared with clone-specific variable domain pairs selected from those presented in Table 1 and human IgG1 constant domains. Candidate antibodies were immobilized on biosensor tips (ForteBio) in kinetic buffer (ForteBio). Biosensor tips were then washed before introduction of a solution of iPHF in kinetic buffer for analysis of association and dissociation with candidate antibodies.

Assay [8] deals with T4, enriched paired helical filament tau …. The assay can be described thus: follow up selectivity analysis, ePHF over wild-type tau; method not stated.
The target in assay [9] is T3, iPHF. The assay can be described thus: follow up selectivity analysis, iPHF over wild-type tau; method not stated.
For assay [10], the target named is T6, wild type tau (human, UniProt P10636 2-758).
T6 construct: also called WT
T6 sequence (P10636 other isoform, or with tags, fused parts or gaps limits assumed): as the sequence (P10636 other isoform, or with tags, fused parts or gaps limits assumed) above
In words: direct ELISA, wild type tau coated. On the procedure: as §2, §3

The target of assay [11] is T7, AC04 peptide (human, phosphothreonine at T212 and T217 of tau (peptide positions 4, 9)).
T7 construct: Tau-derived peptide with an N-terminal Cys
T7 peptide: CSRTPSLPTPPTREPK
The assay can be described thus: one point ELISA.
Text: as §1

The target of assay [12] is T8, wtTau C2 (human).
T8 peptide: PTREPKKVA
The assay can be described thus: one point ELISA.
Text: as §1

In assay [13] the target is T9, tPeptide 5 (204-222) (human).
T9 peptide: GTPGSRSR[pT]P[pS]LP[pT]PPTRE
In words: one point ELISA.
Text: as §1

T1 sequence (peptide, as listed by the source): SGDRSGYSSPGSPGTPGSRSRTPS

B1: VY007 (antibody, V domains shown)
VH: EVQLVESGGGLVQPGGSLRLSCAASRFTFSNYNMNWVRQAPGKGLEWISYISSSSSTIYYADSVKGRFTISRDNAKNSLSLQMNSLRDEDTAVYYCASLGRGYWGQGTLVTVSS
VL: not shown
In the case of B1, the “OD (450 nm)” value in assay [1] and in assay [2] was 0.057 OD450 in each case. Also, the results for the Kd in [3], in assay [6] and in assay [7] were 0.596 nM, 18.2 pM and 0.6 nM, respectively. Also, the “Average IC50 (nM) for inhibiting tau aggregation after immunodepletion of ePHF (tau RD Biosensor cells)” value in [4] worked out at 36.3 nM. The molecule further yielded an EC50 in [5] of 0.18 nM. Moreover, in assay [8], the “selectivity ePHF:WT” value is over 23 fold. Moreover, the “selectivity iPHF:WT” value in assay [9] is over 109 fold.

B2: VY001 (antibody, V domains shown)
VH: EVQLVESGGGLVQPGGSLRLSCAASGFTFSSYNMNWVRQAPGKGLEWISYISSSSNTIYYADSVKGRFTVSRDNAKNSLYLQMNSLRDEDTAVYYCATLGRGYWGQGTLVIASS
VL: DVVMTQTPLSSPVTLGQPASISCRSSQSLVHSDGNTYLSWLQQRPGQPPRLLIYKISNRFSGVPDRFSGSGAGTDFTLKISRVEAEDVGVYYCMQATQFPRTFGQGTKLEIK
On to B2, for which the “OD (450 nm)” value in assay [1] and in assay [2] was 0.059 OD450 in each case. The figures for the Kd in [3], in [6] and in [7] were 0.293 nM, 4.35 pM and 7.7 nM, respectively. In addition, in assay [4], the “Average IC50 (nM) for inhibiting tau aggregation after immunodepletion of ePHF (tau RD Biosensor cells)” value came out at 12.5 nM. In assay [5], this molecule registered an EC50 of 0.02 nM. In assay [8], the “selectivity ePHF:WT” value was over 181 fold. Moreover, the “selectivity iPHF:WT” value in assay [9] is over 30 fold.

B3: VY009 (antibody, V domains shown)
VH: QITLKESGPTLVKPTQTLTLTCTLSGFSLSTSEVGVGWIRQPPGKALEWLAIIYWNDHKRYSPSLKNRLTFTKDTSKNQVVLTMTNMDPVDTATYYCARRVTGEGFDPWGQGTLVTVSS
VL: SYELTQPPSVSVSPGQTARITCSGDALPKQYAYWYQQKPGQAPVLVIFKDTERPSGIPERFSGSSSGTTVTLTISGVQAEDEADYYCQSADSSGSYVFGTGTKVTVL
Regarding B3, a half-maximal effect in assay [5] (EC50) was put at 1.74 nM. In [7], the Kd came to 1.1 nM.

B4: VY019 (antibody, V domains shown)
VH: QVQLQESGPGLVKPSETLSLTCTVSGGSISSYYWTWIRQPAGKGLEWIGRIDTSGSTNYNPSLKSRVTMSIDTSKKQFSLKLSSVTAADTAVYYCARGGDGYRYWGQGTLVTVSS
VL: SYELTQPPSVSVSPGQTARITCSGDALPKQYACWYQQKPGQAPVLVIYKDSERPSGIPERFSGSSSGTTVTLTITGVQAEDEADYYCQSTDSSGSWVFGGGTKLTVL
B4: the binding result in assay [5] and in assay [10] was “no binding” throughout.

B5: VY013 (antibody, V domains shown)
VH: QVTLKESGPVLVKPTETLTLTCTVSGFSLINARMAVSWIRQPPGKALEWLAHIFSNDEKSYSTSLKSRLTISKDTSKSQVVLIMTNMDPVDTATYYCARIRGYSYNYGMDVWGQGTTVTVSS
VL: DIVMTQSPLSLPVIPGEPASISCRSSQSLLHSNGYIYLDWYLQKPGQSPQLLIYVGSNRASGVPDRFSGSGSGTDFKLKISRVEAEDVGVYYCMQTLQIPRTFGGGTKVEIK
For B5, the figures for the EC50 in assay [5] and in assay [10] were 0.06 nM and 0.98 nM, respectively. This molecule also returned a Kd in assay [7] of 2.9 nM.

B6: VY018 (antibody, V domains shown)
VH: QVQLQESGPGLVKPSETLSLTCTVSGGSISNYYWSWIRQPAGKGLEWIGRIYTSGDTYYNPSLQSRVTMSVDTSKNQFSLKLSAVTAADTAVYYCARAGIVGTPGLGMDVWGQGTTVTVSS
VL: SYELTQPPSVSVSPGQTARITCSGEALPKQYAYWYQQKPGQAPVLVIYKDSERPSGIPERFSGSSSGTTVTLTISGVQAEDEADYYCQSADSSGTYRVFGGGTKLTVL
The molecule B6 showed a Kd in assay [7] of 3 nM. Also, the “selectivity iPHF:WT” value in [9] was over 73 fold.

B7: VY006 (antibody, V domains shown)
VH: EVQLVESGGGLVQPGGSLRLSCAASGFTFSSYTMNWVRQAPGKGLEWVSYISSSSSTIYYADSVKGRFTISRDNAKNSLYLQMNSLRDEDTAVYYCASLGRGDCWGQGTLVTVSS
VL: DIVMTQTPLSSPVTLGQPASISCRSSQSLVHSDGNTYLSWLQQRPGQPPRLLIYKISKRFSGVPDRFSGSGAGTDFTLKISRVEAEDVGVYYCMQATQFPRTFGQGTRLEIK
Take B7: the “OD (450 nm)” value was determined as 0.054 OD450 in [1] and 0.063 OD450 in assay [2]. The Kd in [3] stood at 0.356 nM; in [6], 3.82 pM; in [7] it was 1.5 nM. Further, the “Average IC50 (nM) for inhibiting tau aggregation after immunodepletion of ePHF (tau RD Biosensor cells)” value in [4] was determined as 8.3 nM. The EC50 in [5] was determined as 0.11 nM. Further, the “selectivity ePHF:WT” value in assay [8] was over 40 fold. The “selectivity iPHF:WT” value in assay [9] is over 145 fold.

B8: VY005 (antibody, V domains shown)
VH: EVQLVESGGGLVQPGGSLRLSCAASGFTFSSYSMNWVRQAPGKGLEWISYISSSNSTIKYADSVKGRFTISRDNAKNSLYLQMNSLRDEDTAVYYCARRSLGDYWGQGTLVIVSS
VL: DIQLTQSPSFLSASVGDRVTITCRASQGISCSLAWYQQKPGKAPKLLIYAASTLQSGVPSRFSGSGSGTEFTLTISSLQPEDFATYYCQQFNSYPFTFGPGTKVDIK
B8: the entries for the “OD (450 nm)” value in assay [11], in [12] and in assay [13] were 2.83 OD450, 0.153 OD450 and 0.288 OD450, respectively. Further, the EC50 in assay [5] came out at 0.07 nM. In assay [7], this molecule returned a Kd of 1 nM.

B9: VY012 (antibody, V domains shown)
VH: EVQLLESGGGLVQPGGSLRLSCAASGFTYSSYAMSWVRRAPGKGLEWISIISGSSSITYYADSMKGRFTISRDNSKNTLFLQMNSLRAEDTAVYYCAKGGRYGYFQHWGQGTLVTVSS
VL: SYVLTQPPSVSVAPGQTARITCGGNNIGSKSVHWYQQKPGQAPVLVVYDDSDRPSGIPERFSGSNSGNTATLTISRVEAGDEADYYCQVWDSSSDPVVFGGGTMLTVL
B9: the values for the EC50 in [5] and in assay [10] were 0.04 nM and 0.01 nM, respectively. Moreover, in assay [7], the affinity, expressed as Kd, was 5.1 nM.

B10: VY004 (antibody, V domains shown)
VH: EVQLVESGGGLVQAGGSLRLSCAASGFTFSDYSMNWVRQAPGKGLEWVSYIRSSSSIIYYADSVKGRFTISRDNAKNSLHLQMNSLRDEDTAVYYCARRGHFDYWGQGTLVTVSS
VL: EIVLTQSPATLSLSPGERATLSCRASQSVSDYLAWYQQKPGQAPRLFIYDVSKRATGIPARFSGSGSGTDFTLTISSLEPEDFAVYYCQQRSNWPLTFGGGTKVEIK
Consider B10, for which the results for the “OD (450 nm)” value in assay [11], in [12] and in assay [13] were 2.85 OD450, 0.169 OD450 and 0.382 OD450, respectively. Also, the Kd in assay [3] was found to be 11.7 nM; in assay [7], 3.7 nM. In addition, the “Average IC50 (nM) for inhibiting tau aggregation after immunodepletion of ePHF (tau RD Biosensor cells)” value in assay [4] came out at 9.39 nM. The molecule further returned an EC50 in [5] of 0.07 nM. Also, in assay [8], the “selectivity ePHF:WT” value was over 59 fold. In [9], the “selectivity iPHF:WT” value is over 382 fold.

B11: VY017 (antibody, V domains shown)
VH: EVQLVESGGGLVQPGGSLRLSCAASGFTFSSYSMNWVRQAPGKGLEWVSYIRSSSSTIYYADSVKGRFTISRDNAKKSLYLQMNSLRDEDTAVYYCARRSIADYWGQGTLVTVSS
VL: EIVLTQSPATLSSSPGERATLSCRASQSVTSYLNWYQQKPGQAPRLLIYDASNRATGIPARFSGSGSGTDFTLTISSLEPEDFALYYCQQRSNWPYTFGQGTKLEIK
In [7], B11 displayed a Kd of 3.7 nM.

B12: VY016 (antibody, V domains shown)
VH: EVQLVESGGGLVQPGGSLRLSCAASGFTFSSYSMNWVRQAPGKGLEWVSYISRSGSTIYYADSVEGRFTISRDNAYNSLYLQMISLRDDDTAVYYCARGNWAYWGQGILVTVSS
VL: QSVLTQPPSVSGAPGQRVTISCTGSSSNIGAGYDVHWYQQLPGTAPKLLIYGNSNRPSGVPDRFSGSKSGTSASLAITGLQAEDETDFYCQSYDSSLSGSVFGGGTKLTVL
Regarding B12, the binding result in assay [5] and in assay [10] was “no binding” each time.
